Assay results published in patent US20210163601A1 (Amgen, published 2021).

T1: Soluble ASGR-1 (recombinant, biotinylated) (human, UniProt P07306 62-291, limits assumed, biotinylated)
T1 construct: also called recombinant, soluble ASGR-1 biotinylated protein
T1 sequence: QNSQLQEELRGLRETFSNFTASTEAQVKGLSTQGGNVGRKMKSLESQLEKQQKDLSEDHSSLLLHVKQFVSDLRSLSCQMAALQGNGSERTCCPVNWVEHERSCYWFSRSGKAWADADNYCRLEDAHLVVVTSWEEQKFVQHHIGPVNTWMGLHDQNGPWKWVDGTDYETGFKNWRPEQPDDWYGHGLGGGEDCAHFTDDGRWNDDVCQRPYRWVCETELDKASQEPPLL


target: T1, Soluble ASGR-1 (recombinant, …); assay: limiting antigen bead FACS; biotinylated soluble ASGR-1 coated at 2.5 ng/mL on LumAvidin beads;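 note: hybridoma supernatants of ligand-competing antibodies bound to antigen-loaded beads, read by flow cytometry on an iQue Screener in calcium-containing buffer, higher fluorescence meaning stronger relative affinity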

Row | Binder | FACS Geomean
1 | 22G5 (antibody, V domains shown, Tested as hybridoma supernatant) VH: EVQLLESGGGLVQPGGSLRLSCAASGFTFSSYAMNWVRQAPGMGLEWVSVISRSGGYTYYADSVKGRFTISRDNSKNTLYLQMNSLRAEDTAVYYCASRLAVAGSEAFDIWGQGTLVTVSS VL: DIQMTQSPSSLSASVGDRVTITCRASQNISSYLNWYQQKQGKAPKLLIYAASSLQNGVPSRFSGRGSGTDFTLTISSLQPEDFATYYCQQSYRTPLFTFGPGTKVDFK | 1080
2 | 7E11 (antibody, V domains shown, Tested as hybridoma supernatant) VH: QVQLVESGGGVVQPGRSLRLSCAASGFTFSSFGMHWVRQAPGKGLEWVAIIWHDGSNKYYADSVKGRFTISRDNSNNTLYLQMSSLRAEDTAVYYCARDLSMGGMDVWGQGTTVTVSS VL: DIQMTQSPSSLSASVGDRVTIACRASQNIISYLNWYQQKPGKAPKFLIYTASSLQSGVPSRFSGSGSGTDFTLTISSLQPEDFAIYYCQQTYSTPLTFGGGTKVEIK | 4660
3 | 7G4 (antibody, V domains shown, Tested as hybridoma supernatant) VH: QVQLVESGGGVVQPGRSLRLSCAASGFTFNNYVMHWVRQAPGKGLEWVAVIWYDGSNKYYADSVKGRFTISRDNSKNTLYLQMTSLRAEDTAVYYCAREKYSSNWYDYGMDVWGQGTTVTVSS VL: DIQMTQSPSSLSASVGDRVTITCRASQGIRNDLGWYQQRPGKAPKRLIYAASSLQSGVPSRFSGSGSGTEFTLTISSLQPEDSATYYCLHQYSYPRTFGQGTKVEIK | 6800
4 | 5E5 (antibody, V domains shown, Tested as hybridoma supernatant) VH: QVQLVESGGGVVQPGRSLRLSCAASGFTFSNYVMHWVRQAPGKGLEWVAVIWYDGSNKYYADSVKGRFTISRDNSKNTLYLQMNSLRAEDTAVYYCTREVYSSGWYDYGMDVWGQGTTVTVSS VL: DIQMTQSPSSLSASVGDRVTITCRASQGIRNDLGWYQQKPGKAPKRLIYAASSLQSGVPSRFSGSGSGTEFTLTISSLQPEDFATYYCLQHYSYPRTFGQGTKVEVK | 3280
5 | 25A4 (antibody, V domains shown, Tested as hybridoma supernatant) VH: QVLLVQSGAEVKRPGASVKVSCKASGYTFTNYDINWVRQATGQGLEWMGWMYPNSGNTGYAQKFQGRVTMTRNTSISTAYMELSSLRSEDTAVYYCASSSGWYYFDYWGQGTLVTVSS VL: DIVMTQFPDSLAVSLGERATIKCKSSQSVLYSSHNNNYLAWYQQKPGQPPKLLLYWASTRESGVPDRFSGSGSGTEFTLTISSLEAEDVAVYYCQQYYSTPPTFGQGTKVEIK | 18000
6 | 26C4 (antibody, V domains shown, Tested as hybridoma supernatant) VH: QVQLVQSGAEVKKPGASVKVSCKASGYTFTNYDINWVRQASGQGLEWMGWMNPNSGNTGYAQRFQGRVTMTRNTSINTAYMELSSLRSEDTAVYYCASSSGWYYFDYWGQGTLVTVSS VL: not shown | 12000
7 | 190F8 (antibody, V domains shown, Tested as hybridoma supernatant) VH: QVQLVESGGGVVQPGRSLRLSCAASGFTFSTYGMHWVRQAPGKGLEWVAVIWYDGSNKNYADSVKGRFTISRDNSKNTLYLQMNSLRAEDTAVYYCARDQGVGYDGLDVWGQGTTVTVSS VL: DIQMTQSPSSLSASVGDRVTITCRTSQGIGNYLAWFQQKPGKAPKSLLYKASSLQSGVPSKFSGSGSGTDFTLTISSLQPEDFATYYCQQYMTYPLTFGGGTKVEIK | 13900

More lines, now with the values ahead:

Row | FACS Geomean | Binder
8 | 38900 | 194A4 (antibody, V domains shown, Tested as hybridoma supernatant) VH: QVQLVQSGTEVKKPGASLKVSCKASGYTFTVYYLNWVRQAPGQGLEWMGWINPNSGGTNYAQKFQGRVTMTRDTSISTAYMELSRLRSDDTAVYYCARGYDILTGWGQGTLVTVSS VL: EIVLTQSPGTLSLSPGERATLSCRASRGVSNIYLAWYQQKPGQAPRLLIYGASNRATGIPDRFSGSGSGTDFTLTISRLEPEDFAVYYCQHNDYSMFTFGPGTKVDIK
9 | 40200 | 184E7 (antibody, V domains shown, Tested as hybridoma supernatant) VH: QVQLVQSGAEVKTPGASVKVSCRASGYTFTSYNMHWVRQVPGQGLEWMGWINPNNGGSNYTQKFQGRVTMTRDTSISTAYMELSRLRSDDTAVYYCARKFGDWGQGTLVTVSS VL: DIQMTQSPSSRSASIGERVTITCRASQGISNYLAWIQQKPGTAPKSLIYAASSLQSGVSSRFSGSGFGTDFTITISSVQREDFATYYCQQYNGYPFTFGHGTKVDIK
10 | 27000 | 48B12 (antibody, V domains shown, Tested as hybridoma supernatant) VH: EVQLLESGGGLVQPGGSLRLSCAASGFTFSSYAMNWVRQAPGKGLEWVSAISGRGGNTFYADSVKGRFTISRDNSKNTLYLQMNSLRAEDTAVYYCAKRETYNWNYEGFDYWGQGTLVTVSS VL: SYELTQPPSVSVSPGQTARITCSGDALPKKYAYWYQQKSGQAPVLVIYEDSKRPSGIPERFSGSSSGTMATLTISGAQVEDEADYYCNSTDSSGNHVVFGGGTKLTVL
11 | 12200 | 29H8 (antibody, V domains shown, Tested as hybridoma supernatant) VH: QVQLVQSGAEVQKPGASVKVSCKASGYTFTNYDINWVRQATGQGLEWMGWMNPNSGNTGYAQRFQGRVTMTRNTSISAAYMELSSLRSEDTAVYYCASSSGWYYFDYWGQGTLVTVSS VL: not shown
12 | 16900 | 194C1 (antibody, V domains shown, Tested as hybridoma supernatant) VH: QVQLVESGGGVVQPGRSLRLSCAASGFTFSSYGMHWVRQAPGKGLEWVAVIWYDGSNEHYADSVKGRFTISRDNSKNTLYLQMNSLRAEDTAVYYCARNRGVGYYGLDVWGQGTTVTVSS VL: DIQMTQSPSSLSASVGDRVTITCRASQGISNYLAWFQQKPGKAPKSLIYAASSLQSGVPSKFSGSGSGTDFTLTISSLQPEDFATYYCLHYLTYPLTFGGGTKVEIK
13 | 17700 | 197G3 (antibody, V domains shown, Tested as hybridoma supernatant) VH: QVQLVESGGGVVQPGRSLRLSCVASGFTFSSHGMHWVRQAPGKGLEWVAVIWYDGSNKNYADSVKGRFTISRDNSKNTLYLQMNSLRAEDTAVYYCARDPSVGYDGMDVWGQGTTVTVSS VL: DIQMTQSPSSLSASVGDRVTITCRASQGIGNHLAWFQQKPGKAPKSLIYAASSLQSGVPSKFSGSRSGTDFSLTISSLQPEDFATYYCQQYSNYPVTFGPGTKVDIK
14 | 26000 | 198G3 (antibody, V domains shown, Tested as hybridoma supernatant) VH: QVQLVESGGGVVQPGRSLKLSCAASGFTFSTYGMHWVRQAPGKGLEWVAVIWYDGTNKNYADSVKGRFTISRDNSKNTLCLQMNSLRAEDTAVYYCARDQGVGYDGLDVWGQGTTVTVSS VL: DIQMAQSPSSLSASVGDRVTITCRTSQGIGKYLAWFQQKPGKAPKSLLYKASSLQGGVPSKFSGSGSGTDFTLTISSLQPEDFATYYCQQYMTYPLTFGGGTKVEIK
15 | 24200 | 191G10 (antibody, V domains shown, Tested as hybridoma supernatant) VH: QVQLVESGGGVVQPGRSLRLSCAASGFTFSSYGMHWVRQAPGKGLEWVAVIWYDGSNKNYADSVKGRFTISRDNSKNTLYLQMNSLRAEDTAVYYCARDQGVGYDGLDVWGQGTTVTVSS VL: DIQMTQSPSSLSASVGDRVTITCRTSQGIGKYLAWFQQKPGKAPKSLLYKVSSLQSGVPSKFSGSGSGTDFTLTISSLQPEDFATYYCQQYMTYPLTFGGGTKVEIK
16 | 9550 | 191G1 (antibody, V domains shown, Tested as hybridoma supernatant) VH: QVQLVESGGGVVQPGRSLRLSCAASGFTFSSYGMHWVRQAPGKGLEWVAVIWYDGSNEHYADSVKGRFTISRDNSKNTLYLQMNSLRAEDTAVYYCARDRGVGYYGLDVWGQGTTVTVSS VL: DIQMTQSPSSLSASVGDRVTITCRASQGISNYLAWFQQKPGKAPKSLIYAASSLQSGVPSKFSGSGSGTDFTLTISSLQPEDFATYYCQHYLTYPLTFGGGTKVEIK
